The assay has as its target T1, recombinant soluble CD46 (CCP1-4) (human, UniProt P15529 35-285).
T1 sequence (looked up): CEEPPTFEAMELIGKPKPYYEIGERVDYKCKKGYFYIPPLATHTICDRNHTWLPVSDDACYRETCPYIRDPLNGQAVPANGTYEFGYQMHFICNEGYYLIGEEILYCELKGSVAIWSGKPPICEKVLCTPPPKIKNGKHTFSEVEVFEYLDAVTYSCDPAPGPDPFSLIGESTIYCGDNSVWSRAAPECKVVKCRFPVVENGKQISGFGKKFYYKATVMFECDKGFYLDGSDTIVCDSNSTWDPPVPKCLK
Kind of assay: SPR. (Surface plasmon resonance follows binding to a sensor surface in real time, without labels.)

B1: J-1_(DSL-EGF3), recombinant Jagged1 construct of the DSL and first three EGF-like domains (domain or fragment)
chain: not shown
modifications: c-terminally biotinylated
As a reminder, the Kd is the free concentration of one partner at which half of the binding sites on the other are occupied at equilibrium, for simple one-to-one binding. B1: the Kd is roughly 8 µM.
